According to the Human Domainome abundance scans (Beltran et al. 2025):

B1: RNA-binding E3 ubiquitin-protein ligase MEX3C, residues 325 to 391; numbered along this chain, Q5U5Q3 (parent)
chain: GQTTVQVRVPYRVVGLVVGPKGATIKRIQQQTHTYIVTPSRDKEPVFEVTGMPENVDRAREEIEMHI
B2: Integrator complex subunit 12, residues 155 to 213; numbered along this chain, Q96CB8 (parent)
chain: AMEMGLACVVCRQMMVASGNQLVECQECHNLYHRDCHKPQVTDKEANDPRLVWYCARCT

Variants of: B1
Experiment: abundance fitness (aPCA) (normalised: wild type 0, dead -1); higher = more abundant; growth selection in yeast, the domain comes from the species named
Conditions: Homo sapiens

Abundance fitness: each site, then its substitutions
H66: T 0.198; Q 0.166; R 0.178; L 0.282; P -0.88; S -0.336; V 0.286; W -0.079; Y 0.11
I67: R -0.515; W 0.289; F -0.437; V 0.119; G 0.026; A 0.163; S -0.027; Y 0.476; M -0.635; E -0.235; P -0.773; C -0.104; T -0.023; K -0.778

Variants of: B2
Experiment: as above
Conditions: Homo sapiens

Abundance fitness, by site and new letter:
G5: S 0.007; E 0.066; F -0.28; Y -0.267; V -0.13; A -0.001; H 0.026; L -0.216; I -0.205; T -0.045; M -0.152; C -0.143; K 0.143; N 0.043; R -0.058; P -0.053; Q 0.085
C8: R -0.841; H -0.901; G -1.11; F -1; Q -0.71; K -0.874; V -1.14; S -0.757; D -0.787; N -0.675; L -0.978; I -1.04; P -0.633; M -1.19; E -0.927; W -1.38; T -0.814
A1: K 0.154; W -0.199; M 0.03; V 0.037; N 0.109; C -0.099; G -0.115; F -0.161; H 0.245; Y -0.168; R -0.061; T 0.125; I -0.049; P -0.581; S 0.046
M4: I 0.023; T 0.04; D -0.06; L -0.027; F -0.096; S 0.045; C -0.026; G -0.044; Q -0.055; V 0.006; P -0.022; K -0.034; Y -0.168; W -0.43; H 0.065
E3: S -0.038; Q -0.102; L -0.321; K -0.089; Y -0.222; H -0.163; P -0.359; D -0.065; I -0.238; F -0.304; M -0.232; N -0.056; T -0.137; C -0.168; G -0.167; R -0.304; A -0.103; V -0.119
L6: V 0.036; T 0.041; G -0.034; M 0.086; H 0.038; P -0.03; C -0.054; A 0.099; Q 0.014; F -0.081; I 0.007; Y -0.063; D 0.075; K 0.173; S 0.073; E -0.106; R -0.08; W -0.552
A7: C -0.022; D -0.027; H 0.078; L -0.064; M -0.069; P 0.069; E -0.064; Q -0.077; Y -0.144; F -0.172; I 0.008; G -0.155; N 0.039; W -0.41; S 0.01; T 0.032
M2: L -0.003; R -0.054; T 0.073; G 0.009; K -0.013; N -0.112; H -0.136; Y -0.127; D -0.185; I 0.059; F -0.055; C -0.112; W -0.167; A -0.142; S 0.065; Q -0.058; E -0.046; P -0.31
V9: L -0.202; M -0.204; G -0.216; C 0.049; D -0.248; F -0.081; K -0.279; I -0.101; E -0.197; A -0.046
